Consider five molecules from US20080194027, “Compositions, methods and kits based on small nuclear RNAs” (Trustees of the University of Pennsylvania, published 2008).

The target in series [1] is T1, snRNP total proteins (TPs; seven Sm proteins plus U1 snRNP proteins) (Homo sapiens, UniProt P14678;P62314;P62316;P62318;P62304;P62306;P62308;P08621;P09012;P09234 …). As to the kind of experiment: pulldown; Y12 IP; phosphorothioate interference at U92, C86, G109, none in Sm site. The settings on record: tags: anti-TMG immunopurified from HeLa; label: 32P-UTP.
Series [2] has as its target T1, snRNP total proteins (TPs; seven Sm …). The series can be described thus: pulldown; Sm core assembly, Y12 IP. The settings on record: tags: anti-TMG immunopurified from HeLa; label: 32P-UTP.

B1: HSUR5-60 (nt 60-114) (ssRNA)
RNA: AUUUUUG
Take B1: the binding result in series [1] was “binds”.

B2: HSUR5-60 Sm U3C (ssRNA)
RNA: AUUCUUG
modifications: [none]
Take B2: the binding result in series [2] is “binds”.

B3: HSUR5-60 Sm U4C (ssRNA)
RNA: AUUUCUG
modifications: [none]
For B3, the binding result in series [2] was “binds”.

B4: HSUR5-60 Sm U2C (ssRNA)
RNA: AUCUUUG
modifications: [none]
For B4, the binding result in series [2] was “binds”.

B5: HSUR5-60 Sm U1C (ssRNA)
RNA: ACUUUUG
modifications: [none]
As to B5, the binding result in series [2] is “binds”.
